# Test results taken from patent publication US7888090B2, “Mutants of O6-alkylguanine-DNA alkyltransferase” (Ecole Polytechnique Federale de Lausanne, priority 2004, dated 2011).
# Entries after “also recorded” stand apart in the source; their conditions may differ.
# B1: Gly131Lys, Gly132Thr, Met134Leu, Arg135Ser, Asn157Gly, Ser159Glu: hAGT mutant with the listed mutations, selected by phage display (protein, UniProt P16455 1-207, looked up, variant G131K G132T M134L R135S N157G S159E)
# Methylated-DNA--protein-cystei …: MDKDCEMKRTTLDSPLGKLELSGCEQGLHEIKLLGKGTSAADAVEVPAPAAVLGGPEPLMQCTAWLNAYFHQPEAIEEFPVPALHHPVFQQESFTRQVLWKLLKVVKFGEVISYQQLAALAGNPKAARAVKTALSGNPVPILIPCHRVVCSSGAVGGYEGGLAVKEWLLAHEGHRLGKPGLGGSSGLAGAWLKGAGATSGSPPAGRN
# Tests used:
# [1] = Reaction of two AGT variants in one sample with CPTG and BG-Bt; assay type: biochemical; conditions: versus His-tagged AGTM
# Procedure: FIG. 2: Western blot of the reaction of wild type hAGT (GST-hAGT fusion protein) and AGTM with the two substrates N^9-cyclopentyl-O^6-bromophenyl-guanine (CPTG) and biotinylated O^6-benzylguanine (BG-Bt, substance 3a of Juillerat et al. 2003) as described in Example 7. BG-Bt is present in all samples at 5 μM. Detection with neutravidin-peroxidase conjugate and luminescent peroxidase substrate detecting any AGT reacted with BG-Bt. Even under simultaneous incubation with identical concentrations of CPTG and BG-Bt only about 5% of GST-hAGT reacts with substrate BG-Bt.
# Within the experiment two tags with different size for the two AGT proteins are used: The His-tagged AGTM (˜20 kDa) and GST-hAGT (cloned and prepared as described in Example 1, but starting with the wild type hAGT gene, ˜48 kDa) are diluted to 0.2 μM and 1.2 μM final concentration, respectively, in reaction buffer containing 50 mM HEPES, 1 mM DTT, 200 mg/mL BSA (pH 7.3). The sample is incubated with a mixture of substrates N^9-cyclopentyl-O^6-bromophenyl-guanine (CPTG; 0, 5 and 10 μM final concentrations) and biotinylated O^6-benzylguanine (BG-Bt, 5 μM final concentration) for 30 minutes. The reaction is quenched by addition of SDS-Laemmli buffer and subjected to Western blotting analysis (Example 1). As the two AGT variants have different masses, the two proteins can be separated on an acrylamide gel and analyzed independently. […] At the same concentration (both substrates at 5 μM final concentration), 95% of GST-hAGT reacts with CPTG, versus only 5% of His-tagged AGTM.
# [2] = Competition of N^9-substituted and N^9-unsubstituted O^6-benzylguanine substrates; assay type: biochemical
# Procedure: Such N^9-substituted O^6-alkylguanine substrates are the natural substrates of the wild type AGT. The ability of wild type AGT or mutant AGT to react with N^9-modified O^6-alkylguanine substrates is measured as the rate of its reaction with such substrates, e.g. with the low molecular weight N^9-cyclopentyl-O^6-benzylguanine in presence of biotinylated N^9-unsubstituted O^6-alkylguanine substrates in competition experiments. Subsequently, samples are subjected to Western blotting and detection with streptavidin derivates to obtain kinetic constants for these substrates. Alternatively, the reactivity towards such substrates is measured as the inhibition of the reaction of AGT with BG-Cy3. The reaction of AGT with BG-Cy3 is followed by an increase of Cy3 fluorescence intensity upon binding to AGT, after preincubation or in direct competition with the N^9-modified O^6-alkylguanine substrate.
# Selected AGT mutants are subcloned into pGEX2T, expressed, purified and characterized as described in Example 1. Discrimination between N^9 substituted and N^9 unsubstituted O^6-benzylguanine substrates is evaluated by competition experiments for purified mutated GST-AGT in vitro with N^9-substituted and N′-unsubstituted O^6-benzylguanine. Aliquots of 0.2 μM GST-AGT are incubated with varying concentrations of N^9 substituted substrate (0, 0.5, up to 100 µM) and 0.5 µM biotinylated O^6-benzylguanine (BG-Bt, substance 3a of Juillerat et al., Chem Biol 10:313-317, 2003) in 50 mM HEPES pH 7.3 and 1 mM DTT at room temperature. After 45 min reactions are quenched by the addition of SDS-Laemmli buffer and heat denaturation. Samples are subjected to SDS-PAGE and Western blotting analysis (neutravidin-peroxidase conjugate (PIERCE), Renaissance reagent plus (NEN)). The intensity of the corresponding bands is quantified by a Kodak Image Station 440.
# [3] = system: oligonucleotide SEQ ID NO:2 (modified in position 14); assay: Reactivity against DNA-based substrates (BG-Cy3 assay with BG-modified oligonucleotide); assay type: biochemical; conditions: oligonucleotide SEQ ID NO:2 with O^6-benzyl at position 14; compared to PGEG-hAGT
# Procedure: The ability of wild type AGT or mutant AGT to react with alkylated DNA substrates is measured as the reaction of its inactivation by a synthetic oligonucleotide containing O^6-benzylguanine (SEQ ID NO:2, modified in position 14). Subsequently, the reactions are quenched by incubation with biotinylated O^6-alkylguanine. Samples are subjected to Western blotting and detection with streptavidin derivates to obtain kinetic constants for these substrates. Alternatively, the ability of wild type or mutant AGT to react with alkylated DNA substrates is measured via its labeling efficiency in competition with a fluorescent substrate of AGT. The reaction kinetics of AGT with BG-Cy3 (O^6-benzylguanine coupled to Cy3) is followed by fluorescence intensity measurements at various concentrations of a competing synthetic oligonucleotide containing O^6-benzylguanine (SEQ ID NO:2, modified in position 14).
# Reactivity against DNA-based substrates measured with a BG-Cy3 assay: BG-Cy3 is prepared by reacting the previously described O^6-(4-aminomethyl-benzyl)guanine (Keppler et al., NatureBiotechnol. 21:86-89, 2003) with the commercially available N-hydroxysuccinimide ester of Cy3, (Cy3-NHS, Amersham). The coupling reaction is performed at ambient temperature in N,N-dimethylformamide in the presence of 1 eq. of triethylamine. The BG-Cy3 conjugate is purified by reversed-phase HPLC on a C18-column by using linear gradients from 0.1% trifluoroacetic acid to acetonitrile. After solvent evaporation BG-Cy3 is dissolved in dimethyl sulfoxide and stored at −20° C. For measuring the reactivity with DNA-based substrates, a reaction mixture containing different concentrations (0 to 5 µM) of oligonucleotide SEQ ID NO:2 (modified in position 14), GST-AGT fusion protein at 0.2 µM and BG-Cy3 at […] in reaction buffer (50 mM HEPES, pH 7.2, 1 mM DTT, 200 mg/ml BSA) is incubated in microtiterplates. Fluorescence of the Cy3 derivative (excitation 519 nm, emission at 572 nm) is measured on a Spectramax Gemini plate reader (Molecular Devices).
# [4] = Activity assay with biotinylated O^6-benzylguanine (BG-Bt), Western blotting; assay type: biochemical; conditions: statement in words
# Procedure: Activity towards O^6-benzylguanine substrates is measured as described by Juillerat et al., Chem Biol 10:313-317, 2003.
# Activity assay: Purified mutated GST-AGT is incubated in vitro with a biotinylated O^6-benzylguanine (BG-Bt, substance 3a of Juillerat et al., Chem Biol 10:313-317, 2003). In a total reaction volume of 80 […]I, 0.2 µM GST-AGT are incubated with 1 µM substrate in 50 mM HEPES pH 7.2 and 1 mM DTT at room temperature. At several points of time an aliquot is quenched with 1 mM O^6-benzylguanine (Sigma) in SDS-Laemmli buffer and subjected to Western blotting analysis (neutravidin-peroxidase conjugate (PIERCE), Renaissance reagent plus (NEN)). The intensity of the corresponding bands is quantified by a Kodak Image Station 440.
# [5] = Expression yield of soluble GST-AGT fusion protein; set-up: species or system E. coli; conditions: comparator not stated
# Procedure: Expression yield is measured in E. coli or in any other of the standard production cells for genetically modified proteins, e.g. yeast, or preferably insect cells, CHO cells or HeLa cells. For quantifying expression yield, AGT fusion proteins may be chosen such that the fusion partner allows easy purification and quantification. For example, expression yield in E. coli is determined by measuring and comparing the yield of soluble and insoluble GST-wild type AGT fusion protein and GST-mutant AGT fusion protein from parallel E. coli expression cultures. Samples of the soluble fractions and insoluble fractions (i.e. the inclusion bodies) after cell lysis are subjected to SDS-PAGE, and the band staining intensities of the corresponding AGT fusion proteins are compared. Soluble protein is quantified after purification of the fusion protein from cell extracts by affinity chromatography (e.g. for GST-AGT fusion proteins by glutathione sepharose) by subjecting the purified fractions to a protein concentration assay (Bradford, Anal Biochem 72:248-54, 1976). The expression yield of similar proteins in the soluble fraction (difference in point mutations) can be used as a measure for protein stability in the unpurified as well as the purified state (Ohage et al., J Mol Biol 291:1119-1128, 1999; Wirtz et al., Protein Sci 8: 2245-50, 1999). Therefore, this is taken as a measure of folding stability and aggregation tendency.
# Protein expression from this vector is carried out in E. coli strain BL21. An exponentially growing culture is induced with 0.5 mM IPTG, and the expression is carried out for 3.5 h at 24° C.
# Purification: The harvested cells are resuspended in a buffer containing 50 mM phosphate, 0.5 M NaCl, 1 mM DTT, supplemented with 1 mM PMSF and 2 μg/ml aprotinin, and disrupted by lysozyme and sonification. The cell debris are separated by centrifugation at 40000×g. The extract is applied to pre-equilibrated glutathione sepharose (Amersham) which is then washed with 20 bed volumes (50 mM phosphate, 0.5 M NaCl, 1 mM DTT). The mutated GST-AGT fusion protein is eluted with 10 mM reduced glutathione in 50 mM Tris·HCl pH 7.9. The purified protein is dialyzed against 50 mM HEPES pH 7.2; 1 mM DTT; 30% glycerol and then stored at −80° C.
# Determination of protein yield: Purity and relative amounts of the GST-AGT fusion proteins are compared by running samples on SDS-PAGE. UV spectra of the pure fractions are recorded using a Perkin Elmer Lambda 10. For protein samples containing no significant amount of DNA, the extinction at 280 nm as a measure of protein content is compared to that of wild type hAGT or PGEG-hAGT that were purified under the same conditions.
Molecule,specificity of CPTG towards GST-hAGT [1],reduced reactivity towards O^6-alkyl-N^9-deoxyribosylguanine or N^9-cyclopentyl-O^6-benzylguanine ([2]; comparator not stated),reduction of reactivity towards O^6-alkyl-N^9-deoxyribosylguanine or N^9-cyclopentyl-O^6-benzylguanine ([2]; compared to PGEG-hAGT),reduction of reactivity with oligonucleotides [3],activity towards O^6-benzylguanine substrates [4],expression yield in E. coli [5]
"Nc1nc(OCc2cc(Br)cs2)c2ncn(C3CCCC3)c2n1 [CPTG, reference compound]",high specificity,,,,,
B1,,substantially reduced reactivity,at least 10 fold,at least 1000 fold,at least twofold further increased activity; also recorded: increased reactivity,increased expression yield
